In experiment [1] the target is T1, human BCMA on myeloma cells (H929, U266) (human, UniProt Q02223 1-184).
T1 sequence (looked up): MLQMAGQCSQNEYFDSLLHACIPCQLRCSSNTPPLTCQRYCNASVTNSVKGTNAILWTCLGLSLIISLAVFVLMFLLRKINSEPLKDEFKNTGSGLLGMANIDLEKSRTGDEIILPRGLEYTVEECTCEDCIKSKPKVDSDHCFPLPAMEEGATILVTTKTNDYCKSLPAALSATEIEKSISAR
Description: cell-based or functional assay.

Experiment [2] addresses T2, recombinant human BCMA Fc(kih) (human, UniProt Q02223 4-53, biotin on avi-tag where coupled to SA chip ; biotin on the avi-tag of the Fc-knob chain where coupled to the SA chip (tag not in the letters)).
T2 construct: also called huBCMA Fc(kih); huBCMA; not shown: human IgG1 hinge-Fc(knob)-avi fused to the ECD, and the unfused Fc(hole) chain
T2 chain: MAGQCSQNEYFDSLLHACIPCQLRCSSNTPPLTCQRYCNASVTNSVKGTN
Description: SPR Biacore, binder captured via anti-Fab, BCMA-Fc analyte.

Experiment [3] concerns the target T3, recombinant murine BCMA Fc(kih) (murine, UniProt O88472 2-49, biotinylated at the avi-tag of the Fc knob chain (not in the letters)).
T3 construct: also called muBCMA Fc(kih); not shown: human IgG1 hinge-Fc(knob)-avi and the unfused Fc(hole) chain
T3 chain: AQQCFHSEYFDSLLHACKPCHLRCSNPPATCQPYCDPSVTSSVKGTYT
Described as above.

In experiment [4] the target is T2, recombinant human BCMA Fc(kih). Description: SPR Biacore, 1:1 Langmuir fit, as in Example 41. How it is done: The affinity of the interaction between anti-BCMA antibodies or BCMA-TCB CLC antibodies and recombinant human BCMA Fc(kih) was also determined. Anti-human Fab antibody (GE Healthcare) was directly coupled on a CM5 chip at pH 5.0 using the standard amine coupling kit (Biacore, Freiburg/Germany). The immobilization level was about 6500 RU. […] The dissociation was monitored for 120 or 400 seconds. Bulk refractive index differences were corrected for by subtracting the response obtained on reference flow cell. […] Kinetic constants were derived using the Biacore T200 Evaluation Software (v 1.0, Biacore AB, Uppsala/Sweden), to fit rate equations for 1:1 Langmuir binding by numerical integration (Table 41).
The anti-BCMA antibody comprising two heavy chains of 83A10 and two common light chains were produced using the general techniques for generation of bivalent IgG antibodies as described in the Material and general methods section.

Experiment [5] has as its target T4, human FolR1 on cells (HeLa, SKOV3, HT-29, transfected HEK) (human, UniProt P15328 25-234).
T4 construct: whole, on cells
Description: flow cytometry on HeLa cells, fluorescently labeled anti-human secondary antibody. On the procedure:
FIGS. 2A-C depict graphs summarizing Binding of FoLR1 IgG binders to HeLa cells. Binding of newly generated FolR1 binders to FolR1 expressed on HeLa cells were determined by flow cytometry. Bound antibodies were detected with a fluorescently labeled anti-human secondary antibody.
The identified binders were converted into a human IgG1 format and binding to FolR1 high expressing HeLa cells was addressed. […] In a next step the selected clones were tested for specificity to human FolR1 by excluding binding to the closely related human FolR2. HEK cells were transiently transfected with either human FolR1 or human FolR2 to address specificity. […] In parallel cross-reactivity of the FolR1 clones to cyno FolR1 was addressed by performing binding studies to HEK cells transiently transfected with cyno FolR1. […] These FolR1 TCBs were then used to compare induction of internalization after binding to FolR1 on HeLa cells.

For experiment [6], the target named is T5, MUC1 SEA-avi-His, biotinylated (human, biotin on avi tag).
T5 construct: E. coli derived; also called MUC1 antigen; SEA domain of human MUC1
T5 chain: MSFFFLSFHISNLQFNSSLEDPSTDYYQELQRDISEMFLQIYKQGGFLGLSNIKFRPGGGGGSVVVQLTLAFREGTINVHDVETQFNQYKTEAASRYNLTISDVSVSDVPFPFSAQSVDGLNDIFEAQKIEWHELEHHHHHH
Briefly: SPR (ProteOn XPR36), biotinylated MUC1 on NLC chip, Fab as analyte, 1:1 Langmuir fit. How it is done:
Immobilization of recombinant antigens (ligand): Antigens were diluted with PBST (10 mM phosphate, 150 mM sodium chloride pH 7.4, 0.005% Tween 20) to 10 μg/ml, then injected at 30 μl/minute at varying contact times, to achieve immobilization levels of about 200 response units (RU) in vertical orientation. […] Buffer (PBST) was injected along the sixth channel to provide an “in-line” blank for referencing. Association rate constants (kₒₙ) and dissociation rate constants (koff) were calculated using a simple one-to-one Langmuir binding model in ProteOn Manager v3.1 software by simultaneously fitting the association and dissociation sensorgrams. The equilibrium dissociation constant (KD) was calculated as the ratio koff/kₒₙ. Regeneration was performed in horizontal orientation using 10 mM Glycine, pH 1.5 at a flow rate of 100 ul/min for a contact time of 30 s.

Changes are numbered by the printed parent chain. Where “and” joins values, the source holds several entries; their conditions need not be identical. Equal values may be shown once.

T4 sequence (P15328 25-234): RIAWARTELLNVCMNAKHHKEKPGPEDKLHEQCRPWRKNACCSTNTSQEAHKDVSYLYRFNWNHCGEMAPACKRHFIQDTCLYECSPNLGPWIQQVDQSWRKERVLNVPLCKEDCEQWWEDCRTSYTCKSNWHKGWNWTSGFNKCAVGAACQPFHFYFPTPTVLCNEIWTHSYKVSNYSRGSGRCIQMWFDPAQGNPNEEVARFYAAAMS

B1: pSCHLI333-TCB CLC (bispecific antibody)
heavy 1: not shown
heavy 2: QVQLVQSGAEVKKPGASVKVSCKASGYMFSSFGMSWVRQAPGQGLEWMGWIYPVGQGTWYAQKFQGRVTMTRDTSTSTVYMELSSLRSEDTAVYYCARVSYPPSHFDYWGQGTLVTVSSASTKGPSVFPLAPSSKSTSGGTAALGCLVKDYFPEPVTVSWNSGALTSGVHTFPAVLQSSGLYSLSSVVTVPSSSLGTQTYICNVNHKPSNTKVDKKVEPKSCDKTHTCPPCPAPEAAGGPSVFLFPPKPKDTLMISRTPEVTCVVVDVSHEDPEVKFNWYVDGVEVHNAKTKPREEQYNSTYRVVSVLTVLHQDWLNGKEYKCKVSNKALGAPIEKTISKAKGQPREPQVCTLPPSRDELTKNQVSLSCAVKGFYPSDIAVEWESNGQPENNYKTTPPVLDSDGSFFLVSKLTVDKSRWQQGNVFSCSVMHEALHNHYTQKSLSLSPGK
light: QAVVTQEPSLTVSPGGTVTLTCGSSTGAVTTSNYANWVQEKPGQAFRGLIGGTNKRAPGTPARFSGSLLGGKAALTLSGAQPEDEAEYYCALWYSNLWVFGGGTKLTVLGQPKAAPSVTLFPPSSEELQANKATLVCLISDFYPGAVTVAWKADSSPVKAGVETTTPSKQSNNKYAASSYLSLTPEQWKSHRSYSCQVTHEGSTVEKTVAPTECS
notes: also called pSCHLI333 BCMAxCD3 TCB
B1: in experiment [1], the “EC50 redirected T-cell killing, H929” value was 980 pM and 0.19 µg/ml. Also, the Kd in experiment [2] worked out at 164 nM; in experiment [3], 7190 nM.

B2: pSCHLI373-TCB CLC (bispecific antibody)
heavy 1: not shown
heavy 2: EVQLVESGGGLVKPGGSLRLSCAASGFSFSNSWMNWVRQAPGKGLEWVGTIRQKTYGGTTDYAAPVKGRFTISRDDSKNTLYLQMNSLKTEDTAVYYCTTGGLFGYWDYWGQGTLVTVSSASTKGPSVFPLAPSSKSTSGGTAALGCLVKDYFPEPVTVSWNSGALTSGVHTFPAVLQSSGLYSLSSVVTVPSSSLGTQTYICNVNHKPSNTKVDKKVEPKSCDKTHTCPPCPAPEAAGGPSVFLFPPKPKDTLMISRTPEVTCVVVDVSHEDPEVKFNWYVDGVEVHNAKTKPREEQYNSTYRVVSVLTVLHQDWLNGKEYKCKVSNKALGAPIEKTISKAKGQPREPQVCTLPPSRDELTKNQVSLSCAVKGFYPSDIAVEWESNGQPENNYKTTPPVLDSDGSFFLVSKLTVDKSRWQQGNVFSCSVMHEALHNHYTQKSLSLSPGK
light: B1 light
Take B2: the “EC50 redirected T-cell killing, H929” value in experiment [1] was 1590 pM and 0.31 µg/ml.

B3: 83A10-CLC anti-BCMA IgG (antibody, V domains shown)
VH: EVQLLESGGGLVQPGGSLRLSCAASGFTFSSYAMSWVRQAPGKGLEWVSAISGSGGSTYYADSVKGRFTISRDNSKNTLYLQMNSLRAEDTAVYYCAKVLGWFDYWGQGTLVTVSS
VL: QAVVTQEPSLTVSPGGTVTLTCGSSTGAVTTSNYANWVQEKPGQAFRGLIGGTNKRAPGTPARFSGSLLGGKAALTLSGAQPEDEAEYYCALWYSNLWVFGGGTKLTVLG
notes: two heavy chains of 83A10 and two common light chains
For the molecule B3, in experiment [4], the Kd is 24.3 nM, the koff came to 0.00213 s⁻¹ and the kon stood at 87800 M⁻¹ s⁻¹.

B4: Mov19 IgG (antibody, V domains shown)
VH: QVQLQQSGAELVKPGASVKISCKASGYSFTGYFMNWVKQSHGKSLEWIGRIHPYDGDTFYNQNFKDKATLTVDKSSNTAHMELLSLTSEDFAVYYCTRYDGSRAMDYWGQGTTVTVSS
VL: DIELTQSPASLAVSLGQRAIISCKASQSVSFAGTSLMHWYHQKPGQQPKLLIYRASNLEAGVPTRFSGSGSKTDFTLNIHPVEEEDAATYYCQQSREYPYTFGGGTKLEIK
With B4, the “EC50 (read off the curve)” value in experiment [5] was ~1 µg/mL.

B5: 19E5 IgG (antibody, V domains shown)
VH: QVQLVQSGAEVKKPGASVKVSCKASGYTFTSYYMHWVRQAPGQGLEWMGIINPSGGSTSYAQKFQGRVTMTRDTSTSTVYMELSSLRSEDTAVYYCARGEWRRYTSFDYWGQGTLVTVSS
VL: QAVVTQEPSLTVSPGGTVTLTCGSSTGAVTTSNYANWVQEKPGQAFRGLIGGTNKRAPGTPARFSGSLLGGKAALTLSGAQPEDEAEYYCALWYSNLWVFGGGTKLTVL
notes: human IgG1
Take B5: in experiment [5], the “EC50 (read off the curve)” value was ~2 µg/mL.

B6: 106D2 Fab (Fab, V domains shown)
VH: EVQLLESGGGLVQPGGSLRLSCAASGFTFRVYAMSWVRQAPGKGLEWVSGISETGSYTYYADSVKGRFTISRDNSKNTLYLQMNSLRAEDTAVYYCARYPYGFDYWGQGTLVTVSS
VL: B5 VL
notes: bacterial Fab
Turning to B6, in experiment [6], the affinity, expressed as Kd, was 30 nM; the koff is 0.000295 s⁻¹; the kon stood at 9800 M⁻¹ s⁻¹.

B7: 19A4 IgG (antibody, V domains shown)
VH: B5 VH with E100G, R102I, Y104W, T105E, S106H
VL: B5 VL
notes: human IgG1
In the case of B7, the “EC50 (read off the curve)” value in experiment [5] is ~3 µg/mL.

B8: 58D6 Fab (Fab, V domains shown)
VH: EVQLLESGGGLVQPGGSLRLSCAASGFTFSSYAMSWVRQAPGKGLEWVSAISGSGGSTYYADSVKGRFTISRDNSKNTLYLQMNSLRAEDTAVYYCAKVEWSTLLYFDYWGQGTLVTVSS
VL: B5 VL
notes: bacterial Fab
Turning to B8, in experiment [6], the Kd was found to be 23.5 nM, the koff was 0.000798 s⁻¹ and the kon was found to be 34000 M⁻¹ s⁻¹.

B9: 110A5 Fab (Fab, V domains shown)
VH: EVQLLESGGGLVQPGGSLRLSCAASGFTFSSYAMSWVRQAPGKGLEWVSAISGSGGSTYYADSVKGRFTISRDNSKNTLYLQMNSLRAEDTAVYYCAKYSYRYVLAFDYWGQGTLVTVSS
VL: B5 VL
notes: bacterial Fab
In the case of B9, in experiment [6], binding was characterised by a dissociation constant (Kd) of 134 nM, the koff is 0.00164 s⁻¹ and the kon was 12200 M⁻¹ s⁻¹.

B10: 20G6 IgG (antibody, V domains shown)
VH: B5 VH with R102I, T105Y, S106H
VL: B5 VL
notes: human IgG1
Turning to B10, the binding result in experiment [5] is reported as “binds”.

(Values after patent US20170253670A1 (Hoffmann-La Roche, published 2017).)
